Experimental findings from patent US7666644B2, “Glyphosate-N-acetyltransferase (GAT) genes” (Verdia, Inc., priority 2004, dated 2010) are described below.

In one data set the test system is N[C@@H](CC(=O)O)C(=O)O. The data set can be described thus: purified protein, by the assay type. To be noted: other: 25 mM Hepes, pH 6.8, 10% ethylene glycol.
A further data set has as its system O=C(O)CNCP(=O)(O)O. In words: purified protein, by the assay type. To be noted: other: 25 mM Hepes, pH 6.8, 10% ethylene glycol.
A further data set has as its system N[C@@H](CO)C(=O)O. The data set can be described thus: purified protein, by the assay type. The conditions noted are these: other: 25 mM Hepes, pH 6.8, 10% ethylene glycol.
The test system of another data set is tobacco plants. The data set can be described thus: Herbicide spray tests of GAT expressing tobacco plants. Type of data set: in vivo, Nicotiana tabacum. Here is the method: Tobacco shoots generated as described in EXAMPLE 9 were excised from the explants and transferred to basal root induction (BRI) medium composed of half-strength Murashige and Skoog (MS) medium, pH 5.7, with 1.5% sucrose, 0.3% Gelrite, 0-200 uM glyphosate and 400 ug/ml Timentin. Rooted plants and axillary shoots were clonally propagated by cutting the stem and transferring it to fresh BRI medium until the desired number of clones was obtained. Rooted plants were carefully removed from the solid medium. Prior to placing the plants into small pots of soil, the roots were washed to remove any remaining Gelrite. A protective plastic cover was kept over the plants for at least one week until the plants were well established.
To determine if GAT expressing tobacco plants could tolerate simulated field rate sprays of glyphosate, clonal lines of several events per GAT variant were tested. A typical test was set up as follows: One clone from each event was sprayed with 1 ml of solution containing the isopropylamine salt of glyphosate (Sigma P5671) and 0.125% Triton X-100, pH 6.8 such that the amount of active ingredient sprayed was equivalent to that present in commercial glyphosate products. For example, to achieve 32 oz/acre (1×) of herbicide containing 40% active ingredient (“ai”), 2.4 ul of 40% ai formulation was diluted into 1 ml water and sprayed on a plant in a 4-inch square pot (16 in^2). A mock application (0×) with surfactant only was also included. In some cases a second spray was applied 1-4 weeks later. Plants were kept in controlled growth rooms at 25° C. and 70% humidity with 16 hr light.
Seed-grown wild type plants were also sprayed. […] All 0× plants were healthy, including the non-GAT control plants. Three weeks later all of the surviving plants were sprayed with an 8× dose.

A short description of data set [1]: Kinetic parameters by continuous spectrophotometric assay in the presence of 20 mM KCl, protein quantified via UV absorbance. Format: biochemical. The conditions noted are these: templates GAT 24-5H5 or GAT 25-8H7. The method, then: The further evolved gat genes were first selected for growth in E. coli in minimal M9 medium as described in Example 8, except that 5 mM rather than 1 mM glyphosate was used in the selection. Proteins were purified as described in Example 6 above.
Protein concentrations were determined by UV absorbance at 205 nm. The extinction coefficient was determined by the method described by Scopes (1994; Protein Purification, Principles and Practice, Springer, NewYork) according to the formula E (mg ml^−1 cm^−1)=27+120(A280/A205)=30.5. Prior to quantitation by UV absorbance the protein solution was buffer-exchanged into 50 mM Na2SO4 using a NAP-5 column (Amersham-Pharmacia Biotech).
Error bars represent the standard deviation of multiple assays, where available.

Protocol for N[C@@H](CC(=O)O)C(=O)O: (§1) GAT activity of several GAT polypeptides of the present invention was evaluated with respect to a number of amino acid substrates. The GAT polypeptide, AcCoA and amino substrate were incubated in 25 mM Hepes, pH 6.8, 10% ethylene glycol in the wells of a 96-well polystyrene plate. After 30 minutes, the reactions were stopped by the addition of 30 μl of 10 mM 5,5′-dithiobis-2-nitrobenzoate (DTNB) in 500 mM Tris, pH 7.5. After 2 minutes, absorbance was read at 412 nm in a Spectramax Plus plate reader (Molecular Devices, Sunnyvale, Calif.).
Protocol for N[C@@H](CO)C(=O)O: as §1
Protocol for O=C(O)CNCP(=O)(O)O: as §1

The term kcat denotes the maximal rate divided by the concentration of active sites. The kcat/Km is the second-order rate constant that governs catalysis at low substrate concentration. Regarding “non-native GAT polypeptide 17-15H3 (glyphosate-N-acetyltransferase), SEQ ID NO: 601 (Bacillus licheniformis DSM 13 = ATCC 14580; E119K/E65Q/E67Q/E68K/G37R/I132T/I135V/I15L/K101R/K144R/K58Q/L145I/L26I/L97I/R47G/R92K/T33S/T89S/V114A/Y130F/Y31F)”, in the data set on N[C@@H](CC(=O)O)C(=O)O, the Km was 2.95 ± 0.162 MM, the kcat is 7.25 ± 0.188 s⁻¹ and the specificity constant (kcat/Km) worked out at 2470 M⁻¹ s⁻¹. Moreover, in the data set with O=C(O)CNCP(=O)(O)O, the Km came out at 0.251 ± 0.0041 MM, the kcat came out at 19.2 ± 0.46 s⁻¹ and the kcat/Km turned out to be 76200 M⁻¹ s⁻¹. Further, in the data set on N[C@@H](CO)C(=O)O, the Km is reported as 60.1 ± 1.68 MM, the kcat was 4.03 ± 0.263 s⁻¹ and the kcat/Km stood at 67.3 M⁻¹ s⁻¹.

For the molecule “non-native GAT polypeptide 25-8H7 (glyphosate-N-acetyltransferase), SEQ ID NO: 907 (Bacillus licheniformis DSM 13 = ATCC 14580; E119R/E14D/E65Q/E67K/E68K/G37R/G38S/I132T/I135V/I15L/I19V/I53V/I91V/K101R/K144R/K58Q/L105M/L106I/L145I/L26I/L36T/L97I/M75V/R47G/R92K/T33S/T89S/V114A/Y130F/Y31F/Y45F)”, in the data set on N[C@@H](CC(=O)O)C(=O)O, the Km was found to be 4.56 ± 0.112 MM, the kcat was determined as 11.7 ± 0.207 s⁻¹ and the kcat/Km came to 2570 M⁻¹ s⁻¹. For the same molecule, in the data set on O=C(O)CNCP(=O)(O)O, the Km came to 0.05 MM, the kcat was determined as 24.7 ± 1.09 s⁻¹ and the kcat/Km amounted to 493000 M⁻¹ s⁻¹.

For “native GAT polypeptide 401 (glyphosate-N-acetyltransferase), wild type, SEQ ID NO: 6 (Bacillus licheniformis DSM 13 = ATCC 14580)”, the Km with N[C@@H](CC(=O)O)C(=O)O is given as 6.7 MM; in the data set with O=C(O)CNCP(=O)(O)O it was 1.27 ± 0.0144 MM; with N[C@@H](CO)C(=O)O it was 43 MM. Moreover, the values for the kcat in the data set on N[C@@H](CC(=O)O)C(=O)O, in the data set on O=C(O)CNCP(=O)(O)O and in the data set with N[C@@H](CO)C(=O)O were 0.402 s⁻¹, 0.08917 ± 0.000717 s⁻¹ and 14.2 s⁻¹, respectively. The kcat/Km with N[C@@H](CC(=O)O)C(=O)O came to 60 M⁻¹ s⁻¹; with O=C(O)CNCP(=O)(O)O, 70.2 M⁻¹ s⁻¹; with N[C@@H](CO)C(=O)O, 330 M⁻¹ s⁻¹.

B1: 0—5B8: evolved GAT gene, SEQ ID NO:190 (nucleic acid)
DNA: ATGATAGAGGTGAAACCGATTAACGCAGAGGATACCTATGAACTAAGGCATAAAATACTCAGACCAAACCAGCCGATAGAAGCGTGTATGTATGAAAGCGATTTACTTCGTGGTGCATTTCACTTAGGCGGCTTTTACAGGGGCAAACTGATTTCCATAGCTTCATTCCACCAGGCCGAGCACTCAGACCTCCAAGGCCAGAAACAGTACCAGCTCCGAGGTATGGCTACCTTGGAAGGTTATCGTGATCAGAAAGCGGGATCGAGTCTAATTAGACACGCTGAACAAATTCTTCGTAAGAGGGGGGCGGACTTGCTTTGGTGCAATGCGCGGACATCCGCCTCAGGCTACTACAAAAAGTTAGGCTTCAGCGAGCAGGGAGAGATATTTGATACGCCGCCAGTAGGACCTCACATCCTGATGTATAAAAGGCTCACA
modifications: Synthetic nucleic acid sequence; 0_5B8
Regarding B1, the “outcome two weeks after glyphosate spray” value in the data set with tobacco plants (0.5, 2 or 4× glyphosate (1× = 32 oz/acre of 40% ai), clonally propagated events, average of 5 leaves) is “survived the spraying procedure without signs of glyphosate damage”. Also, in the data set on tobacco plants (8× glyphosate three weeks later), the “outcome after second spray with an 8× dose” value is “survived”.

B2: R12G1: further evolved GAT enzyme, SEQ ID NO 917 (protein)
chain: MIEVKPINAEDTYDLRHRVLRPNQPIEACMFESDLTRGAFHLGGFYGGKLISVASFHQAEHTELQGKKQYQLRGVATLEGYREQKAGSSLVKHAEEILRKRGADMIWCNARTSASGYYRKLGFSEQGEVFDTPPVGPHILMYKRIT
modifications: R12G1
As for B2, in data set [1], the “GAT activity compared with the template polypeptides” value is listed as “extremely high GAT activities comparable to those of the template polypeptides”.

B3: R12G2: further evolved GAT enzyme, SEQ ID NO:919 (protein)
chain: MIEVKPINAEDTYDLRHRVLRPNQPIEACMFESDLTRSAFHLGGFYGGKLISVASFHQAEHTELQGKKQYQLRGVATLEGYREQKAGSSLVKHAEEILRKRGADMIWCNARTSASGYYRKLGFSEQGEVFDTPPVGPHILMYKRIT
modifications: R12G2
For the molecule B3, the “GAT activity compared with the template polypeptides” value in data set [1] is given as “extremely high GAT activities comparable to those of the template polypeptides”.

B4: R12G7: further evolved GAT enzyme, SEQ ID NO:929 (protein)
chain: MIEVKPINAEDTYDLRHRVLRPNQPIEACMFDNDLMRGAFHLGGFHGGKLISVASFHQAEHTELQGQKQYQLRGVATLEGYREQKAGSSLVKHAEEILRKRGADMLWCNARTSASGYYRKLGFSEQGEVFDTPPVGPHILMYKRIT
modifications: R12G7
On to B4, for which, in data set [1], the “GAT activity compared with the template polypeptides” value is reported as “extremely high GAT activities comparable to those of the template polypeptides”.

B5: R12G8: further evolved GAT enzyme, SEQ ID NO:931 (protein)
chain: MIEVKPINAEDTYDLRHRVLRPNQPIEACMFDNDLMRSAFHLGGFHGGKLISVASFHQAEHTELQGQKQYQLRGVATLEGYREQKAGSSLVKHAEEILRKRGADMLWCNARTSASGYYRKLGFSEQGEVFDTPPVGPHILMYKRIT
modifications: R12G8
With B5, the “GAT activity compared with the template polypeptides” value in data set [1] is “extremely high GAT activities comparable to those of the template polypeptides”.

B6: R12G4: further evolved GAT enzyme, SEQ ID NO:923 (protein)
chain: MIEVKPINAEDTYELRHRVLRPNQPIEACMFDSDLTRSAFHLGGFYGGKLISVASFHQAEHSELQGKKQYQLRGVATLEGYREQKAGSSLVKHAEEILRKRGADMIWCNARTSASGYYRKLGFSEQGEVFDTPPVGPHILMYKRIT
modifications: R12G4
As for B6, the “GAT activity compared with the template polypeptides” value in data set [1] is on record as “extremely high GAT activities comparable to those of the template polypeptides”.

B7: R12G6: further evolved GAT enzyme, SEQ ID NO:927 (protein)
chain: MIEVKPINAEDTYDLRHRVLRPNQPIEACMFDNDLTRSAFHLGGFYGGKLISVASFHQAEHSELQGKKQYQLRGVATLEGYREQKAGSSLVKHAEEILRKRGADMIWCNARTSASGYYRKLGFSEQGEVFDTPPVGPHILMYKRIT
modifications: R12G6
As for B7, the “GAT activity compared with the template polypeptides” value in data set [1] is “extremely high GAT activities comparable to those of the template polypeptides”.

B8: R12G3: further evolved GAT enzyme, SEQ ID NO:921 (protein)
chain: MIEVKPINAEDTYDLRHRVLRPNQPIEACMFDNDLTRGAFHLGGFYGGKLISVASFHQAEHSELQGKKQYQLRGVATLEGYREQKAGSSLVKHAEEILRKRGADMIWCNARTSASGYYRKLGFSEQGEVFDTPPVGPHILMYKRIT
modifications: R12G3
Turning to B8, the “GAT activity compared with the template polypeptides” value in data set [1] is on record as “extremely high GAT activities comparable to those of the template polypeptides”.

B9: R12G5: further evolved GAT enzyme, SEQ ID NO:925 (protein)
chain: MIEVKPINAEDTYELRHRVLRPNQPIEACMFDSDLTRGAFHLGGFYGGKLISVASFHQAEHSELQGKKQYQLRGVATLEGYREQKAGSSLVKHAEEILRKRGADMIWCNARTSASGYYRKLGFSEQGEVFDTPPVGPHILMYKRIT
modifications: R12G5
For the molecule B9, the “GAT activity compared with the template polypeptides” value in data set [1] is reported as “extremely high GAT activities comparable to those of the template polypeptides”.
